Measurements published in publication PMC3595137 (Nature communications, 2013).
Where a chain is given by its changes, count along the chain named. Blank lines part the entries; values can stand above or below the binder they belong to.

Tests used:
[1] = target: T1, HA-α-SNAP M105I (hyh mutant) (human, UniProt P54920 1-295, M105I); assay: co-IP
T1 sequence: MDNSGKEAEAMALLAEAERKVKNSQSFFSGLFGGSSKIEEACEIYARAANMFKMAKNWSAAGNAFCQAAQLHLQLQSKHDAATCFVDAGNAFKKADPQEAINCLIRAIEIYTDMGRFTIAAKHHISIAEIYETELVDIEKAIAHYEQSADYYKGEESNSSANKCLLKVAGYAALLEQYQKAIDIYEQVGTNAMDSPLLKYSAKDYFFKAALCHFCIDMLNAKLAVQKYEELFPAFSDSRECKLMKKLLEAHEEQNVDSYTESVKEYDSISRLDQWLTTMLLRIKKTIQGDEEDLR

[2] = target: FLAG-tagged AMPK-γ1 (wild type) (UniProt P54619 1-331); assay: pull-down
FLAG-tagged AMPK-γ1 (wild type), sequence (P54619 whole entry): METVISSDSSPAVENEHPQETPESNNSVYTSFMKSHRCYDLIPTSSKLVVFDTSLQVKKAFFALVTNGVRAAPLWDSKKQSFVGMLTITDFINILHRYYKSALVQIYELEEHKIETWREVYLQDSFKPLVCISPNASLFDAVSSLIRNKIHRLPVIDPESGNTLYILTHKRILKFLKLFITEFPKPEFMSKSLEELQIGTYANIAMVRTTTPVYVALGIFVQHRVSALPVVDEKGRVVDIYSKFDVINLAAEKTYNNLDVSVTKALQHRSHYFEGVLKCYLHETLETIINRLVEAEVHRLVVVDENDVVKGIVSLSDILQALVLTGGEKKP

fold increase in co-immunoprecipitation against WT α-SNAP [1]: ~2 fold
B1: FLAG-AMPKα2 (natural protein)
chain: MAEKQKHDGRVKIGHYVLGDTLGVGTFGKVKIGEHQLTGHKVAVKILNRQKIRSLDVVGKIKREIQNLKLFRHPHIIKLYQVISTPTDFFMVMEYVSGGELFDYICKHGRVEEMEARRLFQQILSAVDYCHRHMVVHRDLKPENVLLDAHMNAKIADFGLSNMMSDGEFLRTSCGSPNYAAPEVISGRLYAGPEVDIWSCGVILYALLCGTLPFDDEHVPTLFKKIRGGVFYIPEYLNRSVATLLMHMLQVDPLKRATIKDIREHEWFKQDLPSYLFPEDPSYDANVIDDEAVKEVCEKFECTESEVMNSLYSGDPQDQLAVAYHLIIDNRRIMNQASEFYLASSPPSGSFMDDSAMHIPPGLKPHPERMPPLIADSPKARCPLDALNTTKPKSLAVKKAKWHLGIRSQSKPYDIMAEVYRAMKQLDFEWKVVNAYHLRVRRKNPVTGNYVKMSLQLYLVDNRSYLLDFKSIDDEVVEQRSGSSTPQRSCSAAGLHRPRSSFDSTTAESHSLSGSLTGSLTGSTLSSVSPRLGSHTMDFFEMCASLITTLAR

fold increase in binding with ATP against no nucleotide [2]: 2 fold
B2: purified recombinant α-SNAP (His-tagged, wild type) (natural protein)
chain: T1 sequence with I105M
